Data: publication PMC6105683 (Nature Communications, 2018)

Assays:
Assay in all cases: MST
[1] = test system: GST-ZCCHC3;GST-cGAS
[2] = test system: GST-ZCCHC3
[3] = test system: GST-cGAS
[4] = biological target: T1, GST-cGAS (UniProt Q8N884 1-522); conditions: both partners purified
T1 construct: also called recombinant cGAS
T1 sequence (Q8N884 whole entry): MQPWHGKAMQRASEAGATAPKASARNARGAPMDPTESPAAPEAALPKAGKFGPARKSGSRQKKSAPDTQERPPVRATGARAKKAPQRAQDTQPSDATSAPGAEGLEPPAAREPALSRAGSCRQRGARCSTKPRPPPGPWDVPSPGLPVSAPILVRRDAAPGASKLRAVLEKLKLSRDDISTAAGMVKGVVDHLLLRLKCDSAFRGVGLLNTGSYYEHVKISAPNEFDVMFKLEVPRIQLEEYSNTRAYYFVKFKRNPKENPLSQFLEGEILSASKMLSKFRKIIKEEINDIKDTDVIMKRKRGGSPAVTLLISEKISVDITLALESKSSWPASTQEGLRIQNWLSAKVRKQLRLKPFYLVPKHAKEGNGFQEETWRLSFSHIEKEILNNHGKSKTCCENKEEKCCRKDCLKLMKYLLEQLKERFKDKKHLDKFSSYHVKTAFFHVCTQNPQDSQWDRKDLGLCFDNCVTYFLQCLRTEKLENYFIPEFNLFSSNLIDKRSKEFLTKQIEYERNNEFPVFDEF

Row | Kd [4] [nM] | Molecule | Kd [1] [nM] | Kd [2] [nM] | Kd [3] [nM]
1 |  | HSV60 | 7.62 | 866 | 600
2 | 79.6 ± 12.5 | GST-ZCCHC3 (natural protein, UniProt Q9NUD5 1-403, looked up, lysine residues labelled with a Blue-NHS labeling kit, dye:protein molar ratio of 3, also called recombinant ZCCHC3) MATGGGAEEERKRGRPQLLPPARPAARGEEADGGREKMGWAQVVKNLAEKKGEFREPRPPRREEESGGGGGSAGLGGPAGLAAPDLGDFPPAGRGDPKGRRRDPAGEAVDPRKKKGAAEAGRRKKAEAAAAAMATPARPGEAEDAAERPLQDEPAAAAGPGKGRFLVRICFQGDEGACPTRDFVVGALILRSIGMDPSDIYAVIQIPGSREFDVSFRSAEKLALFLRVYEEKREQEDCWENFVVLGRSKSSLKTLFILFRNETVDVEDIVTWLKRHCDVLAVPVKVTDRFGIWTGEYKCEIELRQGEGGVRHLPGAFFLGAERGYSWYKGQPKTCFKCGSRTHMSGSCTQDRCFRCGEEGHLSPYCRKGIVCNLCGKRGHAFAQCPKAVHNSVAAQLTGVAGH |  |  | 
